# Target: MBP-A3H hap II (APOBEC3H haplotype II, splicing variant SV182, MBP fusion) (human)
# Experiment: SEC-MALS
substance,measurement,value
"MBP-A3H hap II (APOBEC3H haplotype II, splicing variant SV182, MBP fusion) (enzyme)",stoichiometry N,14 to 15 monomers

# From paper PMC5529715
